T1: SNTG2, Q9NY99
T1 sequence (Q9NY99 68-166, limits assumed, looked up): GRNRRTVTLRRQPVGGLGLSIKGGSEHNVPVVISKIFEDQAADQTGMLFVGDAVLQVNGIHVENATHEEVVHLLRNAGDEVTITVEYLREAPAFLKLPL

T2: PARD3B_1, Q8TEW8
T2 sequence (Q8TEW8 196-299, limits assumed, looked up): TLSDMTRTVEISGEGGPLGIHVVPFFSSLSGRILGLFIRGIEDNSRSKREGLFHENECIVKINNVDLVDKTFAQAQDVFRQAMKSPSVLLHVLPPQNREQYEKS

T3: MPP6, Q9NZW5
T3 sequence (Q9NZW5 125-219, limits assumed, looked up): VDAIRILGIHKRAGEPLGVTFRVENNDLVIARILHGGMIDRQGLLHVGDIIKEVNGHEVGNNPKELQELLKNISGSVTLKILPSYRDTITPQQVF

T4: SNTG1, Q9NSN8
T4 sequence (Q9NSN8 52-150, limits assumed, looked up): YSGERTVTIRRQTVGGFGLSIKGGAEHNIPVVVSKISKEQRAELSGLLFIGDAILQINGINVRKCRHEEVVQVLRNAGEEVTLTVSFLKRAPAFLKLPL

T5: APBA1_2, Q02410
T5 sequence (Q02410 742-832, limits assumed, looked up): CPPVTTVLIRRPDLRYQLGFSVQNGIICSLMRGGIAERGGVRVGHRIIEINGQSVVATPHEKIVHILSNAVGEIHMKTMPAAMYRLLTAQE

T6: NHERF3_3, Q5T2W1
T6 sequence (Q5T2W1 238-333, limits assumed, looked up): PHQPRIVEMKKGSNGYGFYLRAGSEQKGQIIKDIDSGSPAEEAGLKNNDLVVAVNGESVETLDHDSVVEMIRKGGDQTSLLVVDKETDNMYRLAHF

T7: LRRC7, Q96NW7
T7 sequence (Q96NW7 1440-1537, limits assumed, looked up): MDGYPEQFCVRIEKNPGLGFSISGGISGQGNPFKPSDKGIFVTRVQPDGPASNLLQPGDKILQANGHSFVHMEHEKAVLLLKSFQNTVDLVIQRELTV

T8: CARD11, Q9BXL7
T8 sequence (Q9BXL7 662-765, limits assumed, looked up): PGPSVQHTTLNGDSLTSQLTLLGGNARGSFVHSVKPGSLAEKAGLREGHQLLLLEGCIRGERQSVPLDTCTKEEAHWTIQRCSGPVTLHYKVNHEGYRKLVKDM

T9: NHERF3_1, Q5T2W1
T9 sequence (Q5T2W1 4-100, limits assumed, looked up): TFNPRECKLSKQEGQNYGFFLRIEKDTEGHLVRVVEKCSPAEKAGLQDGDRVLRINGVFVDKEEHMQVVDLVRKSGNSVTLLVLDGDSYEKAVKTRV

B1: TYRO3, Q06418 (peptide)
chain: QQGLLPHSSC
B2: DFNB31, Q9P202 (peptide)
chain: FLVTEFNVML

Molecular target: LDB3, O75112
Assay: holdup assay
Set-up: key: below the threshold = too weak to quantify, mostly under pKd 3.1 to 4
Conditions: plain residues with an end cap or a label only (N-terminal biotin on a linker: ado-ado)

LDB3, O75112, sequence (O75112 1-94): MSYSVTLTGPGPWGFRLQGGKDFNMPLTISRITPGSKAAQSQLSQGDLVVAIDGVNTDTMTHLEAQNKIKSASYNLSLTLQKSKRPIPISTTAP

Row | pKd | Binder
1 | below the threshold | B1
2 | 3.88 | B2

Molecular target: NHERF4_4, Q86UT5
Assay: holdup assay
Set-up: key: below the threshold = too weak to quantify, mostly under pKd 3.1 to 4
Conditions: plain residues with an end cap or a label only (N-terminal biotin on a linker: ado-ado)

NHERF4_4, Q86UT5, sequence (Q86UT5 464-550): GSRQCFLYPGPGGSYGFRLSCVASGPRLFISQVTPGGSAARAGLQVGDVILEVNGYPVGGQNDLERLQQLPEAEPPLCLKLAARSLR

Row | pKd | Binder
3 | below the threshold | B1
4 | 4.84 | B2

Molecular target: IL16_4, Q14005
Assay: holdup assay
Set-up: key: below the threshold = too weak to quantify, mostly under pKd 3.1 to 4
Conditions: plain residues with an end cap or a label only (N-terminal biotin on a linker: ado-ado)

IL16_4, Q14005, sequence (Q14005 1229-1329): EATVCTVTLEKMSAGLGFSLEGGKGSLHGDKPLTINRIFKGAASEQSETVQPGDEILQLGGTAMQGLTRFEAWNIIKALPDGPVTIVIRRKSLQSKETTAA

Row | pKd | Binder
5 | below the threshold | B1
6 | below the threshold | B2

Molecular target: T1, SNTG2, Q9NY99
Assay: holdup assay
Set-up: key: below the threshold = too weak to quantify, mostly under pKd 3.1 to 4
Conditions: plain residues with an end cap or a label only (N-terminal biotin on a linker: ado-ado)

Row | pKd | Binder
7 | below the threshold | B1
8 | below the threshold | B2

Molecular target: T2, PARD3B_1, Q8TEW8
Assay: holdup assay
Set-up: key: below the threshold = too weak to quantify, mostly under pKd 3.1 to 4
Conditions: plain residues with an end cap or a label only (N-terminal biotin on a linker: ado-ado)

Row | pKd | Binder
9 | below the threshold | B1
10 | 5.21 | B2

Molecular target: GRASP, Q7Z6J2
Assay: holdup assay
Set-up: key: below the threshold = too weak to quantify, mostly under pKd 3.1 to 4
Conditions: plain residues with an end cap or a label only (N-terminal biotin on a linker: ado-ado)

GRASP, Q7Z6J2, sequence (Q7Z6J2 96-193): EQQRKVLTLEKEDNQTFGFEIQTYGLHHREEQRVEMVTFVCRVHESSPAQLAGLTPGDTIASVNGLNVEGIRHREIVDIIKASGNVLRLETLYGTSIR

Row | pKd | Binder
11 | 3.97 | B1
12 | 3.72 | B2

Molecular target: DLG1_3, Q12959
Assay: holdup assay
Set-up: key: below the threshold = too weak to quantify, mostly under pKd 3.1 to 4
Conditions: plain residues with an end cap or a label only (N-terminal biotin on a linker: ado-ado)

DLG1_3, Q12959, sequence (Q12959 457-571): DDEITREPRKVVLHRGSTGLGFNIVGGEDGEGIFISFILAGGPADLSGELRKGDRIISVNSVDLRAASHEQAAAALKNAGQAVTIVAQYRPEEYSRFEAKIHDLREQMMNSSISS

Row | pKd | Binder
13 | below the threshold | B1
14 | below the threshold | B2

Molecular target: T3, MPP6, Q9NZW5
Assay: holdup assay
Set-up: key: below the threshold = too weak to quantify, mostly under pKd 3.1 to 4
Conditions: plain residues with an end cap or a label only (N-terminal biotin on a linker: ado-ado)

Row | pKd | Binder
15 | below the threshold | B1
16 | below the threshold | B2

Molecular target: LNX1_1, Q8TBB1
Assay: holdup assay
Set-up: key: below the threshold = too weak to quantify, mostly under pKd 3.1 to 4
Conditions: plain residues with an end cap or a label only (N-terminal biotin on a linker: ado-ado)

LNX1_1, Q8TBB1, sequence (Q8TBB1 261-371): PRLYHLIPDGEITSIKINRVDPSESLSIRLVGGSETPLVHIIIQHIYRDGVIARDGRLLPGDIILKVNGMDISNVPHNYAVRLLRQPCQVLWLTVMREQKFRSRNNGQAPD

Row | pKd | Binder
17 | below the threshold | B1
18 | below the threshold | B2

Molecular target: T4, SNTG1, Q9NSN8
Assay: holdup assay
Set-up: key: below the threshold = too weak to quantify, mostly under pKd 3.1 to 4
Conditions: plain residues with an end cap or a label only (N-terminal biotin on a linker: ado-ado)

Row | pKd | Binder
19 | below the threshold | B1
20 | below the threshold | B2

Molecular target: T5, APBA1_2, Q02410
Assay: holdup assay
Set-up: key: below the threshold = too weak to quantify, mostly under pKd 3.1 to 4
Conditions: plain residues with an end cap or a label only (N-terminal biotin on a linker: ado-ado)

Row | pKd | Binder
21 | below the threshold | B1
22 | 3.84 | B2

Molecular target: PICK1, Q9NRD5
Assay: holdup assay
Set-up: key: below the threshold = too weak to quantify, mostly under pKd 3.1 to 4
Conditions: plain residues with an end cap or a label only (N-terminal biotin on a linker: ado-ado)

PICK1, Q9NRD5, sequence (Q9NRD5 17-115): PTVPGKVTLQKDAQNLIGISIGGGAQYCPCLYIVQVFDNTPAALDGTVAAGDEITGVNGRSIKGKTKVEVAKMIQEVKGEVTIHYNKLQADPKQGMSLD

Row | pKd | Binder
23 | below the threshold | B1
24 | below the threshold | B2

Molecular target: T6, NHERF3_3, Q5T2W1
Assay: holdup assay
Set-up: key: below the threshold = too weak to quantify, mostly under pKd 3.1 to 4
Conditions: plain residues with an end cap or a label only (N-terminal biotin on a linker: ado-ado)

Row | pKd | Binder
25 | below the threshold | B1
26 | below the threshold | B2

Molecular target: MAGI2_3, Q86UL8
Assay: holdup assay
Set-up: key: below the threshold = too weak to quantify, mostly under pKd 3.1 to 4
Conditions: plain residues with an end cap or a label only (N-terminal biotin on a linker: ado-ado)

MAGI2_3, Q86UL8, sequence (Q86UL8 600-682): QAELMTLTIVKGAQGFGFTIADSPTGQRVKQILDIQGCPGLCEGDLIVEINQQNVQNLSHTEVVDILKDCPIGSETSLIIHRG

Row | pKd | Binder
27 | below the threshold | B1
28 | below the threshold | B2

Molecular target: Inadl_3, Q8NI35
Assay: holdup assay
Set-up: key: below the threshold = too weak to quantify, mostly under pKd 3.1 to 4
Conditions: plain residues with an end cap or a label only (N-terminal biotin on a linker: ado-ado)

Inadl_3, Q8NI35, sequence (Q8NI35 359-469): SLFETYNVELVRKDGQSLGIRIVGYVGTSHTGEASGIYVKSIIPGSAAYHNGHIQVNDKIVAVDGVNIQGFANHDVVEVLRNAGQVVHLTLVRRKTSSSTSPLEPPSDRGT

Row | pKd | Binder
29 | below the threshold | B1
30 | 4.73 | B2

Molecular target: T7, LRRC7, Q96NW7
Assay: holdup assay
Set-up: key: below the threshold = too weak to quantify, mostly under pKd 3.1 to 4
Conditions: plain residues with an end cap or a label only (N-terminal biotin on a linker: ado-ado)

Row | pKd | Binder
31 | below the threshold | B1
32 | 3.64 | B2

Molecular target: T8, CARD11, Q9BXL7
Assay: holdup assay
Set-up: key: below the threshold = too weak to quantify, mostly under pKd 3.1 to 4
Conditions: plain residues with an end cap or a label only (N-terminal biotin on a linker: ado-ado)

Row | pKd | Binder
33 | below the threshold | B1
34 | below the threshold | B2

Molecular target: LIMK2, P53671
Assay: holdup assay
Set-up: key: below the threshold = too weak to quantify, mostly under pKd 3.1 to 4
Conditions: plain residues with an end cap or a label only (N-terminal biotin on a linker: ado-ado)

LIMK2, P53671, sequence (P53671 143-248): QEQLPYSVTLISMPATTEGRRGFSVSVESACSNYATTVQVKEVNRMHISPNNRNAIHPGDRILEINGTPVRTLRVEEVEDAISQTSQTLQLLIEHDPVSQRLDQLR

Row | pKd | Binder
35 | below the threshold | B1
36 | below the threshold | B2

Molecular target: IL16_1, Q14005
Assay: holdup assay
Set-up: key: below the threshold = too weak to quantify, mostly under pKd 3.1 to 4
Conditions: plain residues with an end cap or a label only (N-terminal biotin on a linker: ado-ado)

IL16_1, Q14005, sequence (Q14005 210-306): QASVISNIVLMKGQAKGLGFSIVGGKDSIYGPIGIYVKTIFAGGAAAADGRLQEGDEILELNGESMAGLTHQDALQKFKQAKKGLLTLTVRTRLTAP

Row | pKd | Binder
37 | below the threshold | B1
38 | below the threshold | B2

Molecular target: PTPN3, P26045
Assay: holdup assay
Set-up: key: below the threshold = too weak to quantify, mostly under pKd 3.1 to 4
Conditions: plain residues with an end cap or a label only (N-terminal biotin on a linker: ado-ado)

PTPN3, P26045, sequence (P26045 505-587): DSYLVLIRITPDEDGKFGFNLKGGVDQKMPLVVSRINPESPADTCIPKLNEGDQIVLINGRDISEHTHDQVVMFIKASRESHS

Row | pKd | Binder
39 | below the threshold | B1
40 | 3.89 | B2

Molecular target: TJP1_3, Q07157
Assay: holdup assay
Set-up: key: below the threshold = too weak to quantify, mostly under pKd 3.1 to 4
Conditions: plain residues with an end cap or a label only (N-terminal biotin on a linker: ado-ado)

TJP1_3, Q07157, sequence (Q07157 416-512): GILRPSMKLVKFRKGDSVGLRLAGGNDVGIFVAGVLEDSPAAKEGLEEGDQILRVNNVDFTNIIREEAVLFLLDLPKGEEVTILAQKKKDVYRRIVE

Row | pKd | Binder
41 | below the threshold | B1
42 | below the threshold | B2

Molecular target: DLG2_2, Q15700
Assay: holdup assay
Set-up: key: below the threshold = too weak to quantify, mostly under pKd 3.1 to 4
Conditions: plain residues with an end cap or a label only (N-terminal biotin on a linker: ado-ado)

DLG2_2, Q15700, sequence (Q15700 189-283): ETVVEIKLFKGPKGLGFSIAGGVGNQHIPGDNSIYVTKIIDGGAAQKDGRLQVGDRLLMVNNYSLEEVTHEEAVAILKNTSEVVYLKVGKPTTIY

Row | pKd | Binder
43 | below the threshold | B1
44 | below the threshold | B2

Molecular target: SCRIB_3, Q14160
Assay: holdup assay
Set-up: key: below the threshold = too weak to quantify, mostly under pKd 3.1 to 4
Conditions: plain residues with an end cap or a label only (N-terminal biotin on a linker: ado-ado)

SCRIB_3, Q14160, sequence (Q14160 999-1103): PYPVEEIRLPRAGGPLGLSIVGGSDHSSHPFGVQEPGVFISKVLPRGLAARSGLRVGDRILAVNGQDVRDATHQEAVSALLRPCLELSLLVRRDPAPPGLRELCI

Row | pKd | Binder
45 | below the threshold | B1
46 | 4.12 | B2

Molecular target: AHNAK1, Q09666
Assay: holdup assay
Set-up: key: below the threshold = too weak to quantify, mostly under pKd 3.1 to 4
Conditions: plain residues with an end cap or a label only (N-terminal biotin on a linker: ado-ado)

AHNAK1, Q09666, sequence (Q09666 4-100): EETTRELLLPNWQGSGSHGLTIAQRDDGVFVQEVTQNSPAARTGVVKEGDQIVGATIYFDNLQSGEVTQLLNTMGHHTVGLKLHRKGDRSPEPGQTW

Row | pKd | Binder
47 | below the threshold | B1
48 | below the threshold | B2

Molecular target: T9, NHERF3_1, Q5T2W1
Assay: holdup assay
Set-up: key: below the threshold = too weak to quantify, mostly under pKd 3.1 to 4
Conditions: plain residues with an end cap or a label only (N-terminal biotin on a linker: ado-ado)

Row | pKd | Binder
49 | below the threshold | B1
50 | 4.88 | B2

Molecular target: GRIP2_6, Q9C0E4
Assay: holdup assay
Set-up: key: below the threshold = too weak to quantify, mostly under pKd 3.1 to 4
Conditions: plain residues with an end cap or a label only (N-terminal biotin on a linker: ado-ado)

GRIP2_6, Q9C0E4, sequence (Q9C0E4 648-740): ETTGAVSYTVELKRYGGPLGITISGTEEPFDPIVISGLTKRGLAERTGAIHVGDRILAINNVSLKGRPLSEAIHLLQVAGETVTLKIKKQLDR

Row | pKd | Binder
51 | below the threshold | B1
52 | 4.06 | B2

Molecular target: SCRIB_1, Q14160
Assay: holdup assay
Set-up: key: below the threshold = too weak to quantify, mostly under pKd 3.1 to 4
Conditions: plain residues with an end cap or a label only (N-terminal biotin on a linker: ado-ado)

SCRIB_1, Q14160, sequence (Q14160 718-814): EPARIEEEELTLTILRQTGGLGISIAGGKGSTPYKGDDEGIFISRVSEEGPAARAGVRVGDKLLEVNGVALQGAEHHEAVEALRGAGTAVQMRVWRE

Row | pKd | Binder
53 | below the threshold | B1
54 | 3.86 | B2

Molecular target: DLG5_1, Q8TDM6
Assay: holdup assay
Set-up: key: below the threshold = too weak to quantify, mostly under pKd 3.1 to 4
Conditions: plain residues with an end cap or a label only (N-terminal biotin on a linker: ado-ado)

DLG5_1, Q8TDM6, sequence (Q8TDM6 617-713): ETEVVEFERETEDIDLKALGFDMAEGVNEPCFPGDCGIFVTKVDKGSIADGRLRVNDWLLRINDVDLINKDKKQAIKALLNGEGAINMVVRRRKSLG

Row | pKd | Binder
55 | below the threshold | B1
56 | below the threshold | B2
